Results as given in patent US20140357577A1, “HIV Membrane Fusion Inhibitors” (priority 2011, published 2014).

How the values were obtained:
[1] = molecular target: gp41 of HIV-1 wild type strain IIIB (HIV-1 strain IIIB)
[2] = molecular target: gp41 of HIV-1 strain HXB2D with mutation Q40H (HIV-1 strain HXB2D) (UniProt P04578)

Molecule	EC50 of HIV-IIIB replication (EGFP) [1] [nM]	fold change in EC50, HIV-IIIB + 50% HS [1] [fold]	fold change in EC50, HIV-HXB2D Q40H mutant [2] [fold]
C34 (peptide)	266	0.8	8.8
Sifuvirtide (peptide)	2	1	2
Sifuvirtide-PBD (peptide)	36400	0.8	> 3
T20 (peptide)	17	3.9	49.7
Ac-NNYTSLIHSLIEESQNQQEKNEQELL-NH2 [C34-PBD*]	> 49200	–	–
